Laboratory results from US20230068663A1 (University of Texas, published 2023).

T1: LAIR1 on reporter cells (UniProt Q6GTX8 22-165, limits assumed)
T1 sequence (looked up): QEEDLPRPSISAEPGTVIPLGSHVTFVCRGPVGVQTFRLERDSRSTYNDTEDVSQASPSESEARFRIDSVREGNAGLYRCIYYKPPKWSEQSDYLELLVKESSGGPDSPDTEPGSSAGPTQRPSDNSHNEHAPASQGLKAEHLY

B1: B2-19 (antibody, V domains shown)
VH: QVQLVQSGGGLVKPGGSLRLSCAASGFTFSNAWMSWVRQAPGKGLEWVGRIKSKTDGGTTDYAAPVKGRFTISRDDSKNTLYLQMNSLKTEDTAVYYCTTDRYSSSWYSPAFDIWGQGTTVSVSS
VL: QPVLTQPPSVSEAPRQRVTISCSGSSSNIGNNVVNWYQQLPGKAPKLLIYYDDLLPSGVSDRFSGSKSGTSASLAISGLQSEDEADYYCATWDDSLNGPVFGGGTKLTVL
notes: also called B2-19_HC; B2-19_LC
B2: B2-7 (antibody, V domains shown)
VH: EVQLVESGGGVVQPGRSLRLSCAASGFTISSYGMHWVRQAPGKGLEWVAVISYDGSNKYYADSVKGRFTISRDNSKNTLYLQMNSLRVEDTAVYYCAKDLLLRYFDWSPKYYYNGMDVWGQGTMVTVSS
VL: QSVLTQPPSVSVAPGKTARITCGGNNIGSKSVHWYQQKPGQAPVLVVYDDSDRPSGIPERFSGSNSGNTATLTISRVEAGDEADYYCQVWDSSSDHPGVFGTGTKVTVL
notes: also called B2-7_HC; B2-7_LC
B3: B2-16 (antibody, V domains shown)
VH: QVQLVQSGAEVKKPGSSVKVSCKASGGTFSSYAISWVRQAPGQGLEWMGGIIPIFGTANYAQKFQGRVTITADESTSTAYMELSSLRSEDTAVYYCASGIIPDNPYGMDVWGQGTMVSVSS
VL: DIVMTQSPLSLPVTLGQPASISCTSSQSLVYSDGNTYLNWFHQRPGQSPRRLFYKVSNRASGVPDRFSGSGSGTDFTLKISRVEAEDLGVYYCMQGTHWPVTFGQGTRLEIK
notes: also called B2-16_HC; B2-16_LC

Target: T2, LILRB2 (antigen in solution, Octet RED 96) (UniProt Q8N423 22-460, limits assumed)
T2 construct: also called LILRB2 solution
Assay: BLI (Octet RED 96), antibody on protein A biosensor, LILRB2 in solution
Protocol: Affinity measurement of blocking antibodies. Affinities of the 5 blocking antibodies were measured on Octet RED 96 system.

Binder | Kd | koff | kon
B1 | 1.84 nM | 0.00046 s⁻¹ | 250000 M⁻¹ s⁻¹
B2 | 15.2 nM | 0.00305 s⁻¹ | 200000 M⁻¹ s⁻¹
B3 | 7.45 nM | 0.0009 s⁻¹ | 121000 M⁻¹ s⁻¹

Target: T3, LILRB2 chimeric receptor on LILRB2 reporter cells (extracellular domain of LILRB2 fused with … (UniProt Q8N423 22-460))
T3 construct: extracellular domain;domain: transmembrane/intracellular domains; associates with DAP12; also called LILRB2-expressing reporter cells
Assay: flow cytometry on LILRB2 reporter cells, APC anti-human IgG
From the text: FIGS. 1A-C. Screening specific monoclonal antibodies for LILRB2. […] Binding of monoclonal antibodies was screened using flow cytometer on LILRB2 reporter cells. Bound antibodies were detected with Allophycocyanin (APC)-labeled goat anti-human IgG secondary antibody. (FIG. 1B) Quantification of binding ability of monoclonal antibodies to LILRB2 reporter cells.
Screening specific monoclonal antibodies for LILRB2. The inventors employed a stable reporter cell system to detect the binding ability of selected monoclonal antibodies to LILRB2. In this chimeric receptor reporter system, the extracellular domain (ECD) of LILRB2 is fused with transmembrane/intracellular domains of PILRb that associates with the adaptor protein DAP12 containing an immunoreceptor tyrosine-based activation motif. 27 monoclonal antibodies were screened. The LILRB2 reporter cells were incubated with selected monoclonal antibody, then labeled with (APC) goat anti-human IgG secondary antibody. […] The inventors generated LILRBAs and LILRBs reporters stably transduced with each receptor's extracellular domain (ECD).

Binder | percent of LILRB2 reporter cells labeled
B1 | > 95%
B2 | > 95%
B3 | > 95%

Target: T4, LILRB4
T4 construct: also called LILRB4 reporter cells; not shown: transmembrane/intracellular domains of PILRb, the display part of the chimeric reporter receptor
Assay: flow cytometry, reporter cells
Protocol: (§1) FIG. 29. Binding of LILRB2 antibodies on reporter cell line expressing ectodomain of LILR family proteins on cell surface. Bound antibodies were detected with anti-human Fc-specific secondary antibody (2nd Ab) conjugated to AF647. […] All incubations were performed for 30 minutes at 4° C. Data shown is mean fluorescence intensity after sample acquisition in flow cytometer.

Binder | MFI | binding result
B1 | 14 | no binding
B2 | 15 | no binding
B3 | 14 | no binding

Target: T5, LILRA5
T5 construct: also called LILRA5 reporter cells
Assay: flow cytometry, reporter cells
Protocol: as §1

T5 sequence (chain, as listed by the source limits assumed): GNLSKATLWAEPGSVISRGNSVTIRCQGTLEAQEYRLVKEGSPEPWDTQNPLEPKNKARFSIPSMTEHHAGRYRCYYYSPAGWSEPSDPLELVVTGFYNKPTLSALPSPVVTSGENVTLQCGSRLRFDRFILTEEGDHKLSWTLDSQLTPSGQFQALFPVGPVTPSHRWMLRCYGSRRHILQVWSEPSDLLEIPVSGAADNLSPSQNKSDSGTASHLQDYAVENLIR

Binder | MFI | binding result
B1 | 11 | no binding
B2 | 11 | no binding
B3 | 12 | no binding

Target: T6, LILRB1
T6 construct: also called LILRB1 reporter cells; not shown: transmembrane/intracellular domains of PILRb, the display part of the chimeric reporter receptor
Assay: flow cytometry, reporter cells
Protocol: as §1

T6 sequence (chain, as listed by the source limits assumed): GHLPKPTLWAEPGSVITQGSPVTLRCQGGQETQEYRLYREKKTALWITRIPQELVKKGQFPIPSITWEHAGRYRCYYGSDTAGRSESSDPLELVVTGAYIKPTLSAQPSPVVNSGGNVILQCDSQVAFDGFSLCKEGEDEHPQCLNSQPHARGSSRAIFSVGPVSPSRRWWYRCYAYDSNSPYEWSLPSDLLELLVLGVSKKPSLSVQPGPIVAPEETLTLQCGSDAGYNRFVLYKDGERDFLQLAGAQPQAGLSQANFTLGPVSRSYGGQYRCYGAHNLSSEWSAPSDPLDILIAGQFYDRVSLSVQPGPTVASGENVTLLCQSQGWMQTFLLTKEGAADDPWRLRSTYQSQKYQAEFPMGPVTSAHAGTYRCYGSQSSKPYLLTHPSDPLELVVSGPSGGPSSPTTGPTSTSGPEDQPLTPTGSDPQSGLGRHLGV

Binder | MFI | binding result
B1 | 10 | no binding
B2 | 10 | no binding
B3 | 10 | no binding

Target: T7, LILRB5
T7 construct: also called LILRB5 reporter cells; not shown: transmembrane/intracellular domains of PILRb, the display part of the chimeric reporter receptor
Assay: flow cytometry, reporter cells
Protocol: as §1

T7 sequence (chain, as listed by the source limits assumed): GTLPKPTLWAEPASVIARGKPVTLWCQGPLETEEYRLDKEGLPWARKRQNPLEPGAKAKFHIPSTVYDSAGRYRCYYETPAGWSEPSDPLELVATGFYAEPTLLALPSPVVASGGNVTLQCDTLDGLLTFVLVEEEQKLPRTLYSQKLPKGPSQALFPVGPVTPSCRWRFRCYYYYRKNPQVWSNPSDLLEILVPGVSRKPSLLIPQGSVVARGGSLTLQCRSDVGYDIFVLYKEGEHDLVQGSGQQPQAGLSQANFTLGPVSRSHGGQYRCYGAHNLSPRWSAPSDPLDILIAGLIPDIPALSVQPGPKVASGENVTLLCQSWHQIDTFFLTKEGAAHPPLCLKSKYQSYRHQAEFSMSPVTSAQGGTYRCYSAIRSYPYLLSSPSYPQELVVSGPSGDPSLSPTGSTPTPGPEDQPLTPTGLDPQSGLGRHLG

Binder | MFI | binding result
B1 | 11 | no binding
B2 | 11 | no binding
B3 | 11 | no binding

Target: T8, LILRA2
T8 construct: also called LILRA2 reporter cells; not shown: transmembrane/intracellular domains of PILRb, the display part of the chimeric reporter receptor
Assay: flow cytometry, reporter cells
Protocol: as §1

T8 sequence (chain, as listed by the source limits assumed): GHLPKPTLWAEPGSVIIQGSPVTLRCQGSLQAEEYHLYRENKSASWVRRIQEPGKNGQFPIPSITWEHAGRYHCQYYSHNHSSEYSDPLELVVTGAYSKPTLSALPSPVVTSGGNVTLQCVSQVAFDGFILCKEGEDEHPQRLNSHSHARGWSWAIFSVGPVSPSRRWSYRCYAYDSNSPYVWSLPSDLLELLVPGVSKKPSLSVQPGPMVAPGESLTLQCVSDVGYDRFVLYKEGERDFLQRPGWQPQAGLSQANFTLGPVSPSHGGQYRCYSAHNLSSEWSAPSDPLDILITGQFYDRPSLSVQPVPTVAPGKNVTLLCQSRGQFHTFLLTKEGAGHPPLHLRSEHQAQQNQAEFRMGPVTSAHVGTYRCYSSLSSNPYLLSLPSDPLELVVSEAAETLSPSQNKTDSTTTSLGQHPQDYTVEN

Binder | MFI | binding result
B1 | 10 | no binding
B2 | 10 | no binding
B3 | 10 | no binding

Target: T1, LAIR1 on reporter cells
Assay: flow cytometry, reporter cells
Protocol: as §1

Binder | MFI | binding result
B1 | 22 | no binding
B2 | 23 | no binding
B3 | 24 | no binding

Target: T9, LILRA1 on reporter cells (extracellular domain) (UniProt O75019 17-461, limits assumed)
T9 construct: extracellular domain
Assay: flow cytometry, reporter cells
Protocol: as §1

T9 sequence (O75019 17-461 limits assumed): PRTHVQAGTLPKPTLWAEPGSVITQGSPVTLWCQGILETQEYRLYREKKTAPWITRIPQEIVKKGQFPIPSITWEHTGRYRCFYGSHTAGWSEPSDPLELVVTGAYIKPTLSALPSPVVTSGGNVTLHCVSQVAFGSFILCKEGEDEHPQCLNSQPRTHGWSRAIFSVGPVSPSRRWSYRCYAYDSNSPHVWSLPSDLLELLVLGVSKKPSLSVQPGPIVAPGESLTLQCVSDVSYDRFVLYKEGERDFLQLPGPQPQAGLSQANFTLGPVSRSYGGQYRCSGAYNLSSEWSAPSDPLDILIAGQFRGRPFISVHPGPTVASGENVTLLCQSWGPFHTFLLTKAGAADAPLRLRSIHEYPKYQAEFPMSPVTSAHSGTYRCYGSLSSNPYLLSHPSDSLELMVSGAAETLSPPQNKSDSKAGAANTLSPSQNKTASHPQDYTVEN

Binder | MFI | binding result
B1 | 11 | no binding
B2 | 12 | no binding
B3 | 12 | no binding

Target: T10, LILRA3
T10 construct: also called LILRA3 reporter cells; not shown: transmembrane/intracellular domains of PILRb, the display part of the chimeric reporter receptor
Assay: flow cytometry, reporter cells
Protocol: as §1

T10 sequence (chain, as listed by the source limits assumed): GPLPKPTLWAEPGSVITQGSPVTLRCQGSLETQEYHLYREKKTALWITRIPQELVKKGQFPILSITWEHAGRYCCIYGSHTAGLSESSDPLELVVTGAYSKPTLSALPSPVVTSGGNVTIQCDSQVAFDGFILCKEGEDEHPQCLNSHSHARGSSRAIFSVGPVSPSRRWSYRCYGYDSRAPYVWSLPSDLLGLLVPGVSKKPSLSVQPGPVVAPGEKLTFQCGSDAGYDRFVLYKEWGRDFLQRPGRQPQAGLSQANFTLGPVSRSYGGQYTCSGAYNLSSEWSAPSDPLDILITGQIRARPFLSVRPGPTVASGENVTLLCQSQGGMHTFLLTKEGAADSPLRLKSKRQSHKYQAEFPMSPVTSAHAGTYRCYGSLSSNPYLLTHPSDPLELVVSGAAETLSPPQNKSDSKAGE

Binder | MFI | binding result
B1 | 10 | no binding
B2 | 10 | no binding
B3 | 10 | no binding

Target: T11, LILRA4
T11 construct: also called LILRA4 reporter cells
Assay: flow cytometry, reporter cells
Protocol: as §1

T11 sequence (chain, as listed by the source limits assumed): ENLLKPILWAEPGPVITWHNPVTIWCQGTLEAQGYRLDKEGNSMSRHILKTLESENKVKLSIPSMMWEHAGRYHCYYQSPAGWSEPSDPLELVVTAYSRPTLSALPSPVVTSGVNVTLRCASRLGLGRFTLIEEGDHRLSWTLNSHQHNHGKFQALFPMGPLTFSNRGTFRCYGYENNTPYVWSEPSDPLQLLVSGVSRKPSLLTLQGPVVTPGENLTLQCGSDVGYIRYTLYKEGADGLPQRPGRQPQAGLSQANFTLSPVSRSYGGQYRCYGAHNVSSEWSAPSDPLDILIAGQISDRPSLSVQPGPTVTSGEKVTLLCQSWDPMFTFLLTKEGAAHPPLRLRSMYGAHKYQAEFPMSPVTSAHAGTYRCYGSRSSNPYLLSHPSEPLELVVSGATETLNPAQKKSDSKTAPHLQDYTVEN

Binder | MFI | binding result
B1 | 10 | no binding
B2 | 10 | no binding
B3 | 10 | no binding

Target: T12, LILRA6
T12 construct: also called LILRA6 reporter cells
Assay: flow cytometry, reporter cells
Protocol: as §1

T12 sequence (chain, as listed by the source limits assumed): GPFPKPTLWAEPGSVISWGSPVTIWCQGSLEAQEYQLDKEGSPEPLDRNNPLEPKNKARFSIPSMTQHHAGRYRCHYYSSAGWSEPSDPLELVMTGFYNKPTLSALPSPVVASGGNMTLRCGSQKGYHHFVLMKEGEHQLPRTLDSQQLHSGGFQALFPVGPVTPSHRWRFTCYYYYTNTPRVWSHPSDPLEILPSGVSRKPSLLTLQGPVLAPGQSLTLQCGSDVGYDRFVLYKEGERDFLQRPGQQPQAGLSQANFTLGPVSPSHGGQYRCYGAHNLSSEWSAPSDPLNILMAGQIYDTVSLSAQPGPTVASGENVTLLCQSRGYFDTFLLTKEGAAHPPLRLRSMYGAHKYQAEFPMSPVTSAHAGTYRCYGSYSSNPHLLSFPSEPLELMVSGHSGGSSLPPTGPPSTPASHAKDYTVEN

Binder | MFI | binding result
B1 | 11 | no binding
B2 | 11 | no binding
B3 | 12 | no binding

Target: T3, LILRB2 chimeric receptor on LILRB2 …
Assay: flow cytometry, reporter cells
Protocol: as §1

Binder | MFI
B1 | 1280
B2 | 1160
B3 | 940

Target: T13, LILRB3
T13 construct: also called LILRB3 reporter cells; not shown: transmembrane/intracellular domains of PILRb, the display part of the chimeric reporter receptor
Assay: flow cytometry, reporter cells
Protocol: as §1

Binder | MFI | binding result
B1 | 9 | no binding
B2 | 11 | no binding
B3 | 10 | no binding

Target: T14, full length human LILRB2 stably expressed on HEK293 cells (human, UniProt Q8N423 22-597)
T14 construct: whole, on cells; also called HEK293_LILRB2
Assay: flow cytometry, HEK293 cells expressing full length human LILRB2
Protocol: FIG. 31. Binding of LILRB2 antibodies on HEK293 stably expressing full length human LILRB2. Fifty thousand cells were incubated with a dilution series (40-0.0006 μg/mL) of LILRB2 antibodies in a final volume of 100 μL. Bound antibodies were detected with anti-human Fc-specific secondary antibody conjugated to AF647. All incubations were performed for 30 minutes at 4° C. Data shown is averaged geometric mean fluorescence intensity ± standard error of the mean (s.e.m.) after sample acquisition (in duplicates) in flow cytometer (BD FACS Celesta) and subtracted by background fluorescence of samples incubated with secondary antibody only.

Binder | EC50
B1 | 0.208 µg/mL
B2 | 0.212 µg/mL
B3 | 0.277 µg/mL

Target: T15, LILRB2-His antigen (UniProt Q8N423 22-460, limits assumed)
T15 construct: Coated on ELISA plates; also used for phage panning; also called LILRB2 antigen; not shown: His tag
Assay: indirect ELISA, coated LILRB2-His
Protocol: ELISA binding EC of LILRB2 antibodies. The ELISA binding EC₅₀ of these 24 antibodies were measured by indirect ELISA. […] After incubation, HRP-conjugated goat anti-human Fc secondary antibody was incubated with the plates. The TMB substrate was added for color development and measurement of absorbance at 450 nm.

Binder | EC50
B1 | 3.82 nM
B2 | 82.9 nM
B3 | 9.97 nM

Target: T3, LILRB2 chimeric receptor on LILRB2 …
Assay: cell-based or functional assay

Binder | Blocking potency (IC50) of GFP expression in LILRB2 reporter cells induced by coated ANGPTL2
B1 | 0.0485 µg/mL
B2 | 0.221 µg/mL
B3 | 0.131 µg/mL
